Source: patent publication US9657062B2, “Ghrelin analogues” (Zealand Pharma A/S, priority 2012, dated 2017)
*1 amine or outer side, *2 acyl side, *3 side chain or, on linkers, in order; H or OH if unused. [ ]: non-standard residue; d: D form. The star is where a group is joined. Achc(cis-1,4) = O=C([C@H]1CC[C@@H](N[*:1])CC1)[*:2]; Octanoyl = CCCCCCCC(=O)*; Octyl = CCCCCCCC*

B1: H-[cACC]-S(O-octyl)-FLSPEHQRVQQRKESKKPPAKLQPR-NH2 (peptide)
peptide: H-[Achc(cis-1,4)]S(Octyl)FLSPEHQRVQQRKESKKPPAKLQPR-NH2
SMILES: CCCCCCCCOC[C@H](NC(=O)[C@H]1CC[C@@H](N)CC1)C(=O)N[C@@H](Cc1ccccc1)C(=O)N[C@@H](CC(C)C)C(=O)N[C@@H](CO)C(=O)N1CCC[C@H]1C(=O)N[C@@H](CCC(=O)O)C(=O)N[C@@H](Cc1c[nH]cn1)C(=O)N[C@@H](CCC(N)=O)C(=O)N[C@@H](CCCNC(=N)N)C(=O)N[C@H](C(=O)N[C@@H](CCC(N)=O)C(=O)N[C@@H](CCC(N)=O)C(=O)N[C@@H](CCCNC(=N)N)C(=O)N[C@@H](CCCCN)C(=O)N[C@@H](CCC(=O)O)C(=O)N[C@@H](CO)C(=O)N[C@@H](CCCCN)C(=O)N[C@@H](CCCCN)C(=O)N1CCC[C@H]1C(=O)N1CCC[C@H]1C(=O)N[C@@H](C)C(=O)N[C@@H](CCCCN)C(=O)N[C@@H](CC(C)C)C(=O)N[C@@H](CCC(N)=O)C(=O)N1CCC[C@H]1C(=O)N[C@@H](CCCNC(=N)N)C(N)=O)C(C)C
B2: H-PS-S(O-octyl)-FLSPEHSR-NH2 (peptide)
peptide: H-PSS(Octyl)FLSPEHSR-NH2
SMILES: CCCCCCCCOC[C@H](NC(=O)[C@H](CO)NC(=O)[C@@H]1CCCN1)C(=O)N[C@@H](Cc1ccccc1)C(=O)N[C@@H](CC(C)C)C(=O)N[C@@H](CO)C(=O)N1CCC[C@H]1C(=O)N[C@@H](CCC(=O)O)C(=O)N[C@@H](Cc1c[nH]cn1)C(=O)N[C@@H](CO)C(=O)N[C@@H](CCCNC(=N)N)C(N)=O
B3: H-PS-[NH-CH(n-C10H21)-C(O)]-FLSPEHQRVQQRKESKKPPAKLQPR-NH2 (peptide)
peptide: H-PS[NH‑CH(n-C10H21)‑C(O)]FLSPEHQRVQQRKESKKPPAKLQPR-NH2
B4: H-PS-[NH-CH(n-C10H21)-C(O)]-FLSPEHQRVQRKESKKPPAKLQPR-NH2 (peptide)
peptide: H-PS[NH‑CH(n-C10H21)‑C(O)]FLSPEHQRVQRKESKKPPAKLQPR-NH2
B5: H-PS-S(O-octyl)-FLSPEHQRVQQRKES-NH2 (peptide)
peptide: H-PSS(Octyl)FLSPEHQRVQQRKES-NH2
SMILES: CCCCCCCCOC[C@H](NC(=O)[C@H](CO)NC(=O)[C@@H]1CCCN1)C(=O)N[C@@H](Cc1ccccc1)C(=O)N[C@@H](CC(C)C)C(=O)N[C@@H](CO)C(=O)N1CCC[C@H]1C(=O)N[C@@H](CCC(=O)O)C(=O)N[C@@H](Cc1c[nH]cn1)C(=O)N[C@@H](CCC(N)=O)C(=O)N[C@@H](CCCNC(=N)N)C(=O)N[C@H](C(=O)N[C@@H](CCC(N)=O)C(=O)N[C@@H](CCC(N)=O)C(=O)N[C@@H](CCCNC(=N)N)C(=O)N[C@@H](CCCCN)C(=O)N[C@@H](CCC(=O)O)C(=O)N[C@@H](CO)C(N)=O)C(C)C
B6: H-PS-S(O-octyl)-FLSPEHSRVSSR-NH2 (peptide)
peptide: H-PSS(Octyl)FLSPEHSRVSSR-NH2
SMILES: CCCCCCCCOC[C@H](NC(=O)[C@H](CO)NC(=O)[C@@H]1CCCN1)C(=O)N[C@@H](Cc1ccccc1)C(=O)N[C@@H](CC(C)C)C(=O)N[C@@H](CO)C(=O)N1CCC[C@H]1C(=O)N[C@@H](CCC(=O)O)C(=O)N[C@@H](Cc1c[nH]cn1)C(=O)N[C@@H](CO)C(=O)N[C@@H](CCCNC(=N)N)C(=O)N[C@H](C(=O)N[C@@H](CO)C(=O)N[C@@H](CO)C(=O)N[C@@H](CCCNC(=N)N)C(N)=O)C(C)C
B7: H-FS-S(O-octanoyl)-FLSPEHQRVQQRKESKKPPAKLQPR-OH (peptide)
peptide: H-FSS(Octanoyl)FLSPEHQRVQQRKESKKPPAKLQPR-OH
SMILES: CCCCCCCC(=O)OC[C@H](NC(=O)[C@H](CO)NC(=O)[C@@H](N)Cc1ccccc1)C(=O)N[C@@H](Cc1ccccc1)C(=O)N[C@@H](CC(C)C)C(=O)N[C@@H](CO)C(=O)N1CCC[C@H]1C(=O)N[C@@H](CCC(=O)O)C(=O)N[C@@H](Cc1c[nH]cn1)C(=O)N[C@@H](CCC(N)=O)C(=O)N[C@@H](CCCNC(=N)N)C(=O)N[C@H](C(=O)N[C@@H](CCC(N)=O)C(=O)N[C@@H](CCC(N)=O)C(=O)N[C@@H](CCCNC(=N)N)C(=O)N[C@@H](CCCCN)C(=O)N[C@@H](CCC(=O)O)C(=O)N[C@@H](CO)C(=O)N[C@@H](CCCCN)C(=O)N[C@@H](CCCCN)C(=O)N1CCC[C@H]1C(=O)N1CCC[C@H]1C(=O)N[C@@H](C)C(=O)N[C@@H](CCCCN)C(=O)N[C@@H](CC(C)C)C(=O)N[C@@H](CCC(N)=O)C(=O)N1CCC[C@H]1C(=O)N[C@@H](CCCNC(=N)N)C(=O)O)C(C)C
B8: H-PS-S(O-octyl)-FLSPEHSRVSSRKESKKPPAKLSPR-NH2 (peptide)
peptide: H-PSS(Octyl)FLSPEHSRVSSRKESKKPPAKLSPR-NH2
SMILES: CCCCCCCCOC[C@H](NC(=O)[C@H](CO)NC(=O)[C@@H]1CCCN1)C(=O)N[C@@H](Cc1ccccc1)C(=O)N[C@@H](CC(C)C)C(=O)N[C@@H](CO)C(=O)N1CCC[C@H]1C(=O)N[C@@H](CCC(=O)O)C(=O)N[C@@H](Cc1c[nH]cn1)C(=O)N[C@@H](CO)C(=O)N[C@@H](CCCNC(=N)N)C(=O)N[C@H](C(=O)N[C@@H](CO)C(=O)N[C@@H](CO)C(=O)N[C@@H](CCCNC(=N)N)C(=O)N[C@@H](CCCCN)C(=O)N[C@@H](CCC(=O)O)C(=O)N[C@@H](CO)C(=O)N[C@@H](CCCCN)C(=O)N[C@@H](CCCCN)C(=O)N1CCC[C@H]1C(=O)N1CCC[C@H]1C(=O)N[C@@H](C)C(=O)N[C@@H](CCCCN)C(=O)N[C@@H](CC(C)C)C(=O)N[C@@H](CO)C(=O)N1CCC[C@H]1C(=O)N[C@@H](CCCNC(=N)N)C(N)=O)C(C)C
B9: H-PS-S(O-octyl)-FLSPEHQRVQQRKESKKPPA-NH2 (peptide)
peptide: H-PSS(Octyl)FLSPEHQRVQQRKESKKPPA-NH2
SMILES: CCCCCCCCOC[C@H](NC(=O)[C@H](CO)NC(=O)[C@@H]1CCCN1)C(=O)N[C@@H](Cc1ccccc1)C(=O)N[C@@H](CC(C)C)C(=O)N[C@@H](CO)C(=O)N1CCC[C@H]1C(=O)N[C@@H](CCC(=O)O)C(=O)N[C@@H](Cc1c[nH]cn1)C(=O)N[C@@H](CCC(N)=O)C(=O)N[C@@H](CCCNC(=N)N)C(=O)N[C@H](C(=O)N[C@@H](CCC(N)=O)C(=O)N[C@@H](CCC(N)=O)C(=O)N[C@@H](CCCNC(=N)N)C(=O)N[C@@H](CCCCN)C(=O)N[C@@H](CCC(=O)O)C(=O)N[C@@H](CO)C(=O)N[C@@H](CCCCN)C(=O)N[C@@H](CCCCN)C(=O)N1CCC[C@H]1C(=O)N1CCC[C@H]1C(=O)N[C@@H](C)C(N)=O)C(C)C

target: human growth hormone secretagogue receptor type 1a (human, UniProt Q92847 1-366); experiment: cell-based or functional assay
Sequence (Q92847 whole entry): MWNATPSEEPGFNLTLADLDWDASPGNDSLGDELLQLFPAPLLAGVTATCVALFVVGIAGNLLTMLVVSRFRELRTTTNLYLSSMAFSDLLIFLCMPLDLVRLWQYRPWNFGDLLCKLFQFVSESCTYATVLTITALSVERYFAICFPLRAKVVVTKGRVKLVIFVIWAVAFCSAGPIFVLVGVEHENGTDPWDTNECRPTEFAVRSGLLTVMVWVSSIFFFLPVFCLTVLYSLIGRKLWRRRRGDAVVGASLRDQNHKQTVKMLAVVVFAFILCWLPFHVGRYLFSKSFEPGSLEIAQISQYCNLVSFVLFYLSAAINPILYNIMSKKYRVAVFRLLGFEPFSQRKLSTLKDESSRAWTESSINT

Row | EC50 (nM); Ca2+ induction in HEK293 cells stably expressing the human ghrelin receptor | Binder
1 | 0.271 nM | B1
2 | 0.44 nM | B2
3 | 0.333 nM | B3
4 | 0.23 nM | B4
5 | 0.221 nM | B5
6 | 0.467 nM | B6
7 | 0.714 nM | B7
8 | 0.48 nM | B8
9 | 0.231 nM | B9
